Measured values published in patent publication US20190119397A1 (ZIELBIO, published 2019).

Key:
[1] = molecular target: plectin-1 on the surface of cancer cells (Homo sapiens, UniProt Q15149 1-4684); assay: cell-based or functional assay
[2] = molecular target: T1, recombinant human Sec8-His protein (human); assay: in vitro binding assay on recombinant human Sec8-His protein (FIG. 3A)
T1 construct: also called recombinant human C-terminal portion of Plectin-1 protein; pET-10NC-Plec C term
T1 chain: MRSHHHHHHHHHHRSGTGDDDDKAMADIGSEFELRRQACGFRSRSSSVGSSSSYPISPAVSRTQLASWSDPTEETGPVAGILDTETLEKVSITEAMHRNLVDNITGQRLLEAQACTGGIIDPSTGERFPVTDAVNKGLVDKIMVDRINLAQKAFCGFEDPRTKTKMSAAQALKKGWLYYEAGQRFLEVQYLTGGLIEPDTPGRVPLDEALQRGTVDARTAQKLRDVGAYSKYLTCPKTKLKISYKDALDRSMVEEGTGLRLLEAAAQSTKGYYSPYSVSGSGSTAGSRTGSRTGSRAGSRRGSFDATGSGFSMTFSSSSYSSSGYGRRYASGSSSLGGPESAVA

Chain of plectin-1 on the surface of cancer cells (Q15149 whole entry): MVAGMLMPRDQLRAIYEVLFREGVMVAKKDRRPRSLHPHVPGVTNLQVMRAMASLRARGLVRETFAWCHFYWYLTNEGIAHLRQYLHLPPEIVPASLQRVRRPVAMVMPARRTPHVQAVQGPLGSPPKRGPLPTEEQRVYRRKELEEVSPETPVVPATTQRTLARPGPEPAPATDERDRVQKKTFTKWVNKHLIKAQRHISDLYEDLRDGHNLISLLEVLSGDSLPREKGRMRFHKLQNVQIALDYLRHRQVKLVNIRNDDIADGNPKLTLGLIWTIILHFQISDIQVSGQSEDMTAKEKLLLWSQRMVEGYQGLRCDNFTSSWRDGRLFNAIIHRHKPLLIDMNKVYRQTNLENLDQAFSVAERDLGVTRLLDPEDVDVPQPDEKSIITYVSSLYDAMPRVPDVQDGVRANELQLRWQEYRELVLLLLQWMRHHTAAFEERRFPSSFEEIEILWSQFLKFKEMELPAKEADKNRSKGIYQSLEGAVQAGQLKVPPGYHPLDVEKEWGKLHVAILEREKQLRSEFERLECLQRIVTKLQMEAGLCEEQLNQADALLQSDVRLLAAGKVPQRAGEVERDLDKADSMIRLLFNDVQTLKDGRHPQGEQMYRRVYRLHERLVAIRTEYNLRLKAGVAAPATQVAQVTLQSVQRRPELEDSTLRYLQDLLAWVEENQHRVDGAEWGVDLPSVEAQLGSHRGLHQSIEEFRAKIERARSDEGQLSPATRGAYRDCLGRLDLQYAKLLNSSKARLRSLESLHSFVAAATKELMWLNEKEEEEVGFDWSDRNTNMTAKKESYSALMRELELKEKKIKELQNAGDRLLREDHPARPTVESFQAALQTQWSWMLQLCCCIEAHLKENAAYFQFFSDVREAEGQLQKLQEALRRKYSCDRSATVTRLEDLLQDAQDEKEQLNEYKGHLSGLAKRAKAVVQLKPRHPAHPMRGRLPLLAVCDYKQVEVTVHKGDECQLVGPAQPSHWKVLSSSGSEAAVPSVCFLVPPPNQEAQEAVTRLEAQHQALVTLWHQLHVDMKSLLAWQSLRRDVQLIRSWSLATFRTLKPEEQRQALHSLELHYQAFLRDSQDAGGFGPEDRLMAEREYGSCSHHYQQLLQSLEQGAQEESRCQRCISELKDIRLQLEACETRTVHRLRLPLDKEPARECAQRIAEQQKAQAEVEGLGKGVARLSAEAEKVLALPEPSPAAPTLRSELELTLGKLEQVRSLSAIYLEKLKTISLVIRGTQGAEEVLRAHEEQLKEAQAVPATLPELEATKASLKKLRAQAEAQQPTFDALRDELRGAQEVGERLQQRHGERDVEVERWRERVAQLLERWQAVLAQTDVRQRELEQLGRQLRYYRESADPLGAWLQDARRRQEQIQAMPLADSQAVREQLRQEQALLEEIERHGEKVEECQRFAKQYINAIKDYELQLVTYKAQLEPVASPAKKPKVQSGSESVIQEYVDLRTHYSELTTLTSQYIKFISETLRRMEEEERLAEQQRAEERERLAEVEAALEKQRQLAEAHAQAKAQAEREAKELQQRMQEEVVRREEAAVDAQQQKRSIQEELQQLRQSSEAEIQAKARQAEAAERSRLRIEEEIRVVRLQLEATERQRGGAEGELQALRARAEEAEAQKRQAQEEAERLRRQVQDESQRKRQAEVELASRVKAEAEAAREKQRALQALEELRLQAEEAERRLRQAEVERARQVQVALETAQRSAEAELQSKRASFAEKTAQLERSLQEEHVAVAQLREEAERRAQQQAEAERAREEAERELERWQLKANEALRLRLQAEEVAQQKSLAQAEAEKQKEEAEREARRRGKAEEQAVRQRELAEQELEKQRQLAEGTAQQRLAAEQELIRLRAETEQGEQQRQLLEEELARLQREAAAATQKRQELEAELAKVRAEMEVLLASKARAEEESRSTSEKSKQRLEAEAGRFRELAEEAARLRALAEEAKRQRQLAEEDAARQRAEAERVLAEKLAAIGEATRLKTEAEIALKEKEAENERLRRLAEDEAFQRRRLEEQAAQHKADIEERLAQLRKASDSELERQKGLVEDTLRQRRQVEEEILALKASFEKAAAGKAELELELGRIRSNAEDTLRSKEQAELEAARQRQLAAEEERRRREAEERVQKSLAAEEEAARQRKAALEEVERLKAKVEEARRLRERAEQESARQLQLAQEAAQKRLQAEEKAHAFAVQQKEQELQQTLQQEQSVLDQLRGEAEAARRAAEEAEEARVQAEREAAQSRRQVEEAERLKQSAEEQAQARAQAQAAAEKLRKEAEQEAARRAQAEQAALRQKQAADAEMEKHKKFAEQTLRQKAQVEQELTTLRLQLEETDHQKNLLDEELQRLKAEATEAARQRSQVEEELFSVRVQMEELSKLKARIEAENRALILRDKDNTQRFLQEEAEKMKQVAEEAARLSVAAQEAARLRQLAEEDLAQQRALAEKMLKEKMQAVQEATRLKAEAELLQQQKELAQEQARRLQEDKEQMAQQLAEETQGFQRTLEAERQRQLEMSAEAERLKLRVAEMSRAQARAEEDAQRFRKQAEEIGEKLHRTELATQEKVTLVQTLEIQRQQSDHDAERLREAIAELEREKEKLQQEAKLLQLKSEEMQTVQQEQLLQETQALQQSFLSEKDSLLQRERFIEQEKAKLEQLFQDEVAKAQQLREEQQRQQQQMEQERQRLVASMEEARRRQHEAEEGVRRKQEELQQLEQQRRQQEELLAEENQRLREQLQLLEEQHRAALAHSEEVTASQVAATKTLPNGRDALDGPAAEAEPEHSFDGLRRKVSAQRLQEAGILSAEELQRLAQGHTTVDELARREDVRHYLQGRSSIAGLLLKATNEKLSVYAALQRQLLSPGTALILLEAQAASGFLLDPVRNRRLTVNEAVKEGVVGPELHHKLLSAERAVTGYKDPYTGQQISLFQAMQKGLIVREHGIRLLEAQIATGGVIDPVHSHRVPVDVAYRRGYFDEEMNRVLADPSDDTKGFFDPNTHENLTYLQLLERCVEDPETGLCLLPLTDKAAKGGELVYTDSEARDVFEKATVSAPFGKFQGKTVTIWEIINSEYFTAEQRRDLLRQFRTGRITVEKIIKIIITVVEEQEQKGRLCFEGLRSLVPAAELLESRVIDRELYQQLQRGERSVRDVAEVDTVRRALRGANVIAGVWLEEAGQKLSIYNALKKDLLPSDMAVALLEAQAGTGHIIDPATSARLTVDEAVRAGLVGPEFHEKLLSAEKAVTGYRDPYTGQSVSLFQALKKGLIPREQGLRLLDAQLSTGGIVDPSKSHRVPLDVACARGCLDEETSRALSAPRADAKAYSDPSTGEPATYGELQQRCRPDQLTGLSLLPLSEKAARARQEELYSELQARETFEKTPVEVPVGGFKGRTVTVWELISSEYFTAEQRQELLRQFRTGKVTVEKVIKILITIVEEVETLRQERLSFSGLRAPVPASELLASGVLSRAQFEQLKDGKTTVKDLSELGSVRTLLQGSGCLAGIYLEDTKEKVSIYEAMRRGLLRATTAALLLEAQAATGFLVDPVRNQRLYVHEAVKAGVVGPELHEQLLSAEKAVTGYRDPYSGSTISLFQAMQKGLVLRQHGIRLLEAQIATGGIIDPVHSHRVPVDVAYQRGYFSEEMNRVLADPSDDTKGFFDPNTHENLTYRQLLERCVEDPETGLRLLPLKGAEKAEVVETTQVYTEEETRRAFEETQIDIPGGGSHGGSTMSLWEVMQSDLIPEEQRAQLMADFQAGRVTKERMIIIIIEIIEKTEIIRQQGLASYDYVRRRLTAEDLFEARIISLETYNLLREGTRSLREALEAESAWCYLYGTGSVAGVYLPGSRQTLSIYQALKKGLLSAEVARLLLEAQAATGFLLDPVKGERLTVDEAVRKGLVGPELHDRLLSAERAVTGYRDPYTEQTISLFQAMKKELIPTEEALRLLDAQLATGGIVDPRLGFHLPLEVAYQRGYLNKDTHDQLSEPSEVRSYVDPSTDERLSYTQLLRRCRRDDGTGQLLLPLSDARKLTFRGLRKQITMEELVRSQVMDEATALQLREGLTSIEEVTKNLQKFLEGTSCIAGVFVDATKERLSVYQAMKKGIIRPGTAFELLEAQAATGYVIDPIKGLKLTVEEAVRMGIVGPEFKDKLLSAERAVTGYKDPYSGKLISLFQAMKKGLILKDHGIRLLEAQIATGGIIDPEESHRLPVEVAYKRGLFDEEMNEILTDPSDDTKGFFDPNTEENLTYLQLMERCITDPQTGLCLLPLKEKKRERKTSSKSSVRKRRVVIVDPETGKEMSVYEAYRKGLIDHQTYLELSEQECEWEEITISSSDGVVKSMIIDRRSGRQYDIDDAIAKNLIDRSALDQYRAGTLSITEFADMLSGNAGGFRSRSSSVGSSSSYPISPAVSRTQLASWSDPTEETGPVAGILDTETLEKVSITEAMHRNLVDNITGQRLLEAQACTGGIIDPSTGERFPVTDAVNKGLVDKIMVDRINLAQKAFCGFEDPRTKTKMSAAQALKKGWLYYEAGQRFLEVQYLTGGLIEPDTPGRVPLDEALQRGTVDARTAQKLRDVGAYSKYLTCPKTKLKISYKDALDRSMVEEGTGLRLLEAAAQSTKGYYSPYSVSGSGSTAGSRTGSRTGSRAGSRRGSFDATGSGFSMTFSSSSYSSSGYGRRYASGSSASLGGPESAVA

B1: PAb1 (antibody, mouse IgG2b, kappa, V domains shown)
VH: QIQLVQSGPELKKPGETVKISCKASGYTFTDYSMHWVKQAPGKGLKWMGWINTETGEPTYADDFKGRFAFSLETSASTAYLQINNLKNEDTATYFCAPGGFAYWGQGTLVTVSA
VL: DIVMTQAAPSVPVTPGESVSISCRSSKSLLHSNGNTYLYWFLQRPGQSPQLLIYRMSNLASGVPDRFSGSGSGTAFTLRISRVEAEDVGVYYCMQHLEYPLTFGAGTKLELKR
notes: Mouse hybridoma monoclonal antibody; also called Plectin-1 mAb; Plectin-1mAb
**Q.** How did the “Plectin-1mAb EC50 (nM): concentration of mAb that reduced cell viability by 50%, L3.6pl cells, 72 hours” value [1] turn out when B1 was run?
**A.** 34 nM

**Q.** What about the “Plectin-1mAb EC50 (nM): concentration of mAb that reduced cell viability by 50%, OVCAR8 cells, 72 hours” value [1] of the same binder?
**A.** 63 nM

**Q.** And the “Plectin-1mAb EC50 (nM): concentration of mAb that reduced cell viability by 50%, SKOV3 cells, 72 hours” value [1]?
**A.** 53 nM

**Q.** What about the “Plectin-1mAb EC50 (nM): concentration of mAb that reduced cell viability by 50%, YapC cells, 72 hours” value [1] of the same binder?
**A.** 43 nM

**Q.** And the Kd [2]?
**A.** < 1 nM
